Test results from the Immune Epitope Database (IEDB).
pKd: −log10 of the molar value.

Tests used:
Assay in all cases: IEDB peptide-MHC binding, purified MHC/competitive/radioactivity; filed as Kd, often an IC50 or EC50 that approximates it; ≥ and ≤ were set here for values at or beyond the usual limits of such assays
HLA-A*02:06 = target: HLA-A*02:06
HLA-A*02:03 = target: HLA-A*02:03
HLA-A*02:02 = target: HLA-A*02:02
HLA-A*31:01 = target: HLA-A*31:01
HLA-A*33:01 = target: HLA-A*33:01
HLA-A*68:01 = target: HLA-A*68:01
HLA-A*03:01 = target: HLA-A*03:01
HLA-A*11:01 = target: HLA-A*11:01
[1] = source organism: Dengue virus 4 Philippines/H241/1956
[2] = source organism: Vaccinia virus WR
[3] = source organism: SARS coronavirus Tor2
[4] = source organism: Dengue virus 1 Brazil/97-11/1997
[5] = source organism: Mammarenavirus brazilense
[6] = source organism: Mammarenavirus guanaritoense
[7] = source organism: Vaccinia virus Copenhagen

Sequence | pKd (HLA-A*02:06; [2]) | pKd (HLA-A*02:03; [2]) | pKd (HLA-A*02:02; [2]) | further results
GQIHLAIMAV |  |  |  | pKd (HLA-A*02:06; [1]): 8.88
TLLNETAKVI | 5.07 | 5.67 | 5.54 | 
GIDTSNNIA | ≤ 4.60 | ≤ 4.15 | ≤ 4.30 | 
DVNEEYTEAA | ≤ 4.23 | ≤ 4.54 | ≤ 4.33 | 
MLHNPTSET | ≤ 4.11 | 6.74 | 5.38 | 
VQIENLEYTV |  |  |  | pKd (HLA-A*02:06; [1]): 8.36
TLNEDLLEI |  |  |  | pKd (HLA-A*02:06; [3]): 7.25; pKd (HLA-A*02:03; [3]): 8.65; pKd (HLA-A*02:02; [3]): 8.84
IVAMLLTHGA | 7.09 | 6.82 | 5.94 | 
WQIEKASLI |  |  |  | pKd (HLA-A*02:06; [1]): 7.36
LLFMILTVAA |  |  |  | pKd (HLA-A*02:03; [4]): 6.33
IVSRSSRGV | 6.32 | 4.88 | 6.58 | 
NIVTFINDYA | 6.45 | 6.61 | 7.21 | 
RAGYSIVEL | 5.29 | 5.27 | 5.31 | 
LLFLVLIMLI |  |  |  | pKd (HLA-A*02:06; [3]): 5.08; pKd (HLA-A*02:03; [3]): 5.50; pKd (HLA-A*02:02; [3]): 6.35
DMLLNVQTL | 4.87 | 5.29 | 5.13 | 
KVIGLYGNGV |  |  |  | pKd (HLA-A*02:06; [1]): 7.91
DLNSFEQLCI |  |  |  | pKd (HLA-A*02:06; source organism: Homo sapiens): ≤ 3.89
YTVEFDRDKV | 7.66 | 6.81 | 7.08 | 
RQDYRRSINV | 5.65 | 6.43 | 6.00 | 
NVKSKLLWFL | ≤ 4.51 | 6.20 | 5.64 | 
TLYAVATTVI |  |  |  | pKd (HLA-A*02:03; [4]): 6.71
YVLGIFLRKL |  |  |  | pKd (HLA-A*02:06; [1]): 7.49
VIPDELIDVL | 6.53 | 5.34 | 5.60 | 
SMKGENVFI | 4.86 | 7.72 | 8.26 | 
HILHAYCGI | 6.44 | 7.18 | 6.91 | 
SIISLFYTFA | 7.03 | 7.55 | 6.95 | 
ETDDDGNYPL | 5.94 | ≤ 4.55 | 5.44 | 
LLMLVTPSMA |  |  |  | pKd (HLA-A*02:03; [4]): 7.63

Sequence | pKd (HLA-A*02:06; [2]) | pKd (HLA-A*02:03; [2]) | pKd (HLA-A*02:02; [2]) | further results
SIGFEARIV | 5.88 | 6.24 | 5.00 | 
MAEFEDQLV | 5.26 | 6.19 | 6.78 | 
GLVSLLGSA |  |  |  | pKd (HLA-A*02:03; [1]): 8.39
PTWLGAAITL | 5.75 | 6.00 | 5.87 | 
NTLIQYRQQL | ≤ 4.68 | 5.00 | 5.20 | 
RLRQDTEDI | 5.34 | 6.41 | 6.64 | 
DVLPFDIKYI | 5.95 | 6.73 | 5.92 | 
KVEKYLPEVI | 6.13 | 4.91 | 4.92 | 
CTINVNSLA | 6.61 | 5.79 | 5.98 | 
YMSNLFDIPL | 6.90 | 7.99 | 7.72 | 
LNTPYCNYTK |  |  |  | pKd (HLA-A*31:01; [5]): 5.19; pKd (HLA-A*33:01; [5]): 7.49; pKd (HLA-A*68:01; [5]): 6.16; pKd (HLA-A*03:01; [5]): 4.82; pKd (HLA-A*11:01; [5]): 4.97
TVENNIDFLK |  |  |  | pKd (HLA-A*31:01; [2]): 5.06; pKd (HLA-A*33:01; [2]): 4.75; pKd (HLA-A*68:01; [2]): 7.71; pKd (HLA-A*03:01; [2]): 5.58; pKd (HLA-A*11:01; [2]): 7.16
FLPQIGGEA | 7.02 | 6.92 | 7.68 | 
IIAVFDSKLI | 5.07 | 6.23 | 6.12 | 
KIDKLTFQI | 7.38 | 4.97 | 6.85 | 
ITGNKVKTEL | ≤ 4.16 | ≤ 4.15 | ≤ 4.15 | 
FFASFYYIWK |  |  |  | pKd (HLA-A*31:01; [3]): 6.13; pKd (HLA-A*33:01; [3]): 7.22; pKd (HLA-A*68:01; [3]): 7.06; pKd (HLA-A*03:01; [3]): 6.55; pKd (HLA-A*11:01; [3]): 6.61
NMWREILSNT | 4.92 | 7.25 | 5.22 | 
CIRNASKFVY |  |  |  | pKd (HLA-A*31:01; [2]): ≤ 4.15; pKd (HLA-A*33:01; [2]): ≤ 4.15; pKd (HLA-A*68:01; [2]): ≤ 4.43; pKd (HLA-A*03:01; [2]): 4.76; pKd (HLA-A*11:01; [2]): 4.70
NIVASVNMV |  |  |  | pKd (HLA-A*02:03; source organism: Dengue virus 3 Martinique/1243/1999): 7.08
VTSSGVIYK |  |  |  | pKd (HLA-A*31:01; source organism: Variola virus): ≤ 4.15; pKd (HLA-A*33:01; source organism: Variola virus): ≤ 4.15; pKd (HLA-A*68:01; source organism: Variola virus): ≤ 4.15; pKd (HLA-A*03:01; source organism: Variola virus): ≤ 4.15; pKd (HLA-A*11:01; source organism: Variola virus): ≤ 4.16
LIYYQNEVT | 5.07 | 5.28 | 4.85 | 
GFNTLKPIFK |  |  |  | pKd (HLA-A*31:01; [3]): 5.74; pKd (HLA-A*33:01; [3]): 4.71; pKd (HLA-A*68:01; [3]): 5.71; pKd (HLA-A*03:01; [3]): 6.85; pKd (HLA-A*11:01; [3]): 6.98
YCLDFLFDV |  |  |  | pKd (HLA-A*02:06; [6]): ≤ 4.11; pKd (HLA-A*02:03; [6]): ≤ 4.11; pKd (HLA-A*02:02; [6]): 4.76
PASKKESVI | 4.99 | 5.75 | 5.87 | 
LLNETAKVI | 4.81 | 7.15 | 6.50 | 
YLRLYIILA |  |  |  | pKd (HLA-A*02:06; [7]): 5.38; pKd (HLA-A*02:03; [7]): 7.28; pKd (HLA-A*02:02; [7]): 8.08
